± gives the uncertainty stated by the source.
Assay: self-splicing fitness, log relative to wild type (ln ratio); higher = more splicing; Tetrahymena group I intron in knt gene, E. coli kanamycin selection, DiMSum; sequences stand for … in CUCUCU…GGAGGGAAAAGUUAUCAGGCAUGCACCUGGUAGCUAGUCUUUAAACCAAUAGAUUGCAUCGGUUUAAAAGGCAAGACCGUCAAAUUGCGGGAAAGGGGUCAACAGCCGUUCAGUACCAAGUCUCAGGGGAAACUUUGAGAUGGCCUUGCAAAGGGUAUGGUAAUAAGCUGACGGACAUGGUCCUAACCACGCAGCCAAGUCCUAAGUCAACAGAUCUUCUGUUGAUAUGGAUGCAGUUCACAGACUAAAUGUCGGUCGGGGAAGAUGUAUUCUUCUCAUAAGAUAUAGUCGGACCUCUCCUUAAUGGGAGCUAGCGGAUGAAGUGAUGCAACACUGGAGCCGCUGGGAACUAAUUUGUAUGCGAAAGUAUAUUGAUUAGUUUUGGAGUACUCGUGGUCG
How it was run: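 Library with all eight P1ex-region intron nucleotides randomised, intron inside the knt kanamycin-resistance gene on pET-22b(+), in E. coli BL21(DE3). Cells grew overnight at 37°C or 30°C on LB agar with or without 25 μg/mL kanamycin (plus 100 μg/mL carbenicillin, 50 μM IPTG, 0.2% rhamnose), in six replicate transformations. Pooled colonies were amplicon-sequenced on Illumina HiSeq 2500. DiMSum fitness is the error-weighted combination of wild-type-normalised replicate fold changes, kanamycin versus none.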

Sequence | self-splicing fitness (ln) (30 °C) | self-splicing fitness (ln) (37 °C)
AUUUAGCAAUAUUACGUGCA | -1.05 ± 0.11 | -0.306 ± 0.16
AAGUAGCAAUAUUACGGCAU | -0.18 ± 0.094 | 0.382 ± 0.12
CAGCAGCAAUAUUACGAUGG | -0.264 ± 0.07 | 0.177 ± 0.092
UACAAGCAAUAUUACGUCUG | -0.521 ± 0.071 | 0.299 ± 0.08
GUCCAGCAAUAUUACGCGAA | -1.21 ± 0.11 | 0.483 ± 0.11
GGCUAGCAAUAUUACGUAUC | -0.368 ± 0.098 | -0.254 ± 0.12
ACUUAGCAAUAUUACGGCUC | -0.897 ± 0.061 | -0.503 ± 0.077
GCUGAGCAAUAUUACGCUGA | -2.99 ± 0.2 | -1.15 ± 0.17
UGUCAGCAAUAUUACGAAGG | -1.69 ± 0.1 | -0.409 ± 0.14
GCAUAGCAAUAUUACGAACU | -1.11 ± 0.084 | -0.315 ± 0.11
UAUCAGCAAUAUUACGCCCA | 0.297 ± 0.18 | 0.008 ± 0.18
CUUUAGCAAUAUUACGUCGA |  | -1.96 ± 0.48
CGUGAGCAAUAUUACGCGGG | -1.74 ± 0.25 | 
CCUGAGCAAUAUUACGAUGC | -4.16 ± 0.28 | -2.75 ± 0.21
CGCCAGCAAUAUUACGAGAG | -3.58 ± 0.13 | -1.37 ± 0.098
GAACAGCAAUAUUACGAUGU | -1.05 ± 0.043 | -0.336 ± 0.06
GGCAAGCAAUAUUACGUCCA | -1.83 ± 0.22 | -0.175 ± 0.18
AGUCAGCAAUAUUACGUUUA | -2.23 ± 0.11 | -1.36 ± 0.099
CGGUAGCAAUAUUACGCUCC | -2.2 ± 0.38 | 
UCGCAGCAAUAUUACGCAGG | -3.59 ± 0.2 | -2.2 ± 0.19
CAGGAGCAAUAUUACGAUAG | -1.19 ± 0.12 | -0.223 ± 0.13
AUCAAGCAAUAUUACGAUGU | -0.836 ± 0.083 | -0.217 ± 0.091
AUUUAGCAAUAUUACGGAUA | -2.18 ± 0.27 | -1.53 ± 0.27
AGGUAGCAAUAUUACGCUAA | -1.66 ± 0.018 | -0.802 ± 0.035
GGUAAGCAAUAUUACGUAUA | -1.77 ± 0.21 | -1.68 ± 0.26
ACUGAGCAAUAUUACGUUUU | -4.25 ± 0.26 | -2.07 ± 0.18
GGUCAGCAAUAUUACGUCUA | -0.0881 ± 0.073 | 0.0699 ± 0.078

Sequence | self-splicing fitness (ln) (30 °C) | self-splicing fitness (ln) (37 °C)
GUGAAGCAAUAUUACGGAGA | -2.03 ± 0.32 | -1.19 ± 0.47
UUAUAGCAAUAUUACGGACA | -1.66 ± 0.14 | -0.61 ± 0.12
UGGCAGCAAUAUUACGCACC | -2.36 ± 0.22 | -1.37 ± 0.25
CUCGAGCAAUAUUACGUGCG | -3.08 ± 0.2 | -2.91 ± 0.17
GGGGAGCAAUAUUACGAACA | -1.6 ± 0.35 | -0.419 ± 0.28
CCCCAGCAAUAUUACGCUGC | -3.41 ± 0.17 | -2.06 ± 0.23
CCUUAGCAAUAUUACGACAA | -3.31 ± 0.2 | -3.02 ± 0.35
GUGAAGCAAUAUUACGAACC | -3.05 ± 0.29 | 
GUUCAGCAAUAUUACGCGUC | -1.41 ± 0.071 | -0.257 ± 0.078
GACGAGCAAUAUUACGCCGC | -2.06 ± 0.16 | -1.72 ± 0.38
CCCUAGCAAUAUUACGACAG | -2.34 ± 0.13 | -3.3 ± 0.29
GCAAAGCAAUAUUACGACCA | -0.267 ± 0.15 | -0.678 ± 0.19
AGAGAGCAAUAUUACGCAUC | -2.22 ± 0.28 | -1.91 ± 0.22
CGAGAGCAAUAUUACGGAGG | -2.7 ± 0.49 | 
UAGAAGCAAUAUUACGGAUA | -1.18 ± 0.1 | -0.43 ± 0.11
AAUGAGCAAUAUUACGUGCG | -2 ± 0.15 | -1.99 ± 0.3
AUGGAGCAAUAUUACGAUAA | -2.21 ± 0.26 | 
UGUCAGCAAUAUUACGCGCA | -1.67 ± 0.13 | -0.608 ± 0.14
GUUGAGCAAUAUUACGGGGC | -2.38 ± 0.19 | -2.84 ± 0.29
CCGUAGCAAUAUUACGCUAA | -3.32 ± 0.35 | -1.35 ± 0.36
UCGCAGCAAUAUUACGUAGG | -0.74 ± 0.068 | -0.377 ± 0.086
UUGCAGCAAUAUUACGAUGA | -0.402 ± 0.097 | 0.367 ± 0.12
CCUCAGCAAUAUUACGCCAA | -2.26 ± 0.23 | 
GUCUAGCAAUAUUACGCUUG | -1.22 ± 0.11 | -0.705 ± 0.11
GUACAGCAAUAUUACGUAUC | -2.87 ± 0.16 | -1.35 ± 0.28
AUCAAGCAAUAUUACGCGGC | -3.39 ± 0.33 | -1.98 ± 0.29
UUGUAGCAAUAUUACGAGGG |  | -1.87 ± 0.4

Sequence | self-splicing fitness (ln) (30 °C) | self-splicing fitness (ln) (37 °C)
GUGCAGCAAUAUUACGAUAA | -2.55 ± 0.16 | -1.04 ± 0.13
AGGGAGCAAUAUUACGUCGG |  | -1.52 ± 0.38
AGCGAGCAAUAUUACGCAAA | -3.01 ± 0.36 | -2.52 ± 0.48
ACCUAGCAAUAUUACGACCC | -0.886 ± 0.2 | -0.637 ± 0.31
CUAUAGCAAUAUUACGCUUC | -2.46 ± 0.36 | -1.14 ± 0.31
GCUAAGCAAUAUUACGCUUU | -3.06 ± 0.15 | -1.71 ± 0.15
CUGGAGCAAUAUUACGCAGG | -3.11 ± 0.23 | -2.36 ± 0.2
UGACAGCAAUAUUACGAACU | -0.592 ± 0.14 | 0.0955 ± 0.17
CAGGAGCAAUAUUACGGUAA |  | -2.51 ± 0.44
AUUCAGCAAUAUUACGUCCC | -1.53 ± 0.13 | -1.3 ± 0.14
GGUGAGCAAUAUUACGCUGC | -3.91 ± 0.28 | -2.65 ± 0.32
AAUCAGCAAUAUUACGCUCC | -1.54 ± 0.14 | -0.129 ± 0.11
AAAAAGCAAUAUUACGCGCA | -0.39 ± 0.082 | 0.127 ± 0.11
CAUCAGCAAUAUUACGUACU | -2.68 ± 0.18 | -1.65 ± 0.22
UUCGAGCAAUAUUACGCAGG | -2.48 ± 0.27 | -1.82 ± 0.23
UUUAAGCAAUAUUACGCAGA | -1.64 ± 0.16 | -1.93 ± 0.14
UACGAGCAAUAUUACGAUGU | -3.35 ± 0.32 | -2.46 ± 0.34
CUAUAGCAAUAUUACGAUUA | -3.05 ± 0.29 | -0.967 ± 0.19
CUGAAGCAAUAUUACGAUUC | -3.13 ± 0.23 | -2.5 ± 0.29
UCGGAGCAAUAUUACGAAUA | -2.32 ± 0.32 | -1.27 ± 0.32
ACGGAGCAAUAUUACGCGCA | -1.39 ± 0.23 | -1.64 ± 0.17
CGAGAGCAAUAUUACGUUUC | -2.76 ± 0.25 | -2.59 ± 0.27
UUUUAGCAAUAUUACGGAAU |  | -2.48 ± 0.4
GCGUAGCAAUAUUACGUCGU | -2.13 ± 0.12 | -2.04 ± 0.18
AUUUAGCAAUAUUACGGACC | -1.57 ± 0.2 | -1.29 ± 0.27
